Biological target: T1, IFIH1-WT-Flag (UniProt Q8R5F7 1-1025)
T1 sequence: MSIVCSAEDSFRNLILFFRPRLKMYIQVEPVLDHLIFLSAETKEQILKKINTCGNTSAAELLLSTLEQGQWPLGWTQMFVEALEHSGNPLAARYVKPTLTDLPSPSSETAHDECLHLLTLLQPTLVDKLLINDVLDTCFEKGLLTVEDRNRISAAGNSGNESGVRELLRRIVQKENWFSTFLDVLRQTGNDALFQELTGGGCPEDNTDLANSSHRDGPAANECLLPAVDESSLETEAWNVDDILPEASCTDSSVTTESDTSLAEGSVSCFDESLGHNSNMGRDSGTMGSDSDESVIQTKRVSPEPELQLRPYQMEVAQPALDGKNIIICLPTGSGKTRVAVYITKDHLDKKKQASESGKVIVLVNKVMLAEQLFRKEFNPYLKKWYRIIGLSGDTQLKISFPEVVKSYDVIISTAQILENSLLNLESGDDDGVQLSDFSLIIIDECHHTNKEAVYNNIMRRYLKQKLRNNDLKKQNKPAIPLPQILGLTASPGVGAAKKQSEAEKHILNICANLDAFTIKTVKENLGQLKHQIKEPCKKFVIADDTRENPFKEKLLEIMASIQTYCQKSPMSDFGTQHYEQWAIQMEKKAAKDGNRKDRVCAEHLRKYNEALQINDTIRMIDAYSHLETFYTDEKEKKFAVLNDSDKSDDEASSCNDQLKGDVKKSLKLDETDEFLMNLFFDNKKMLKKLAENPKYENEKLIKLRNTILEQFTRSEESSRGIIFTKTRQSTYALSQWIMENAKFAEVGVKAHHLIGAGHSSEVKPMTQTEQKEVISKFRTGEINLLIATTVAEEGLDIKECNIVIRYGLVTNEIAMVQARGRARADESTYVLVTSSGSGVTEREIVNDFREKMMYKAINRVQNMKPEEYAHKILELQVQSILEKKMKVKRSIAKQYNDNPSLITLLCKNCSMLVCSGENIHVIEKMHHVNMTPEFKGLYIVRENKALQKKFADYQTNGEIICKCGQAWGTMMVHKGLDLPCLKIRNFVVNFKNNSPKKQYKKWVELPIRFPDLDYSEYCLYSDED
Assay: competition; EMSA, 50 pmol cold RNA vs biotin-IBR1-WT; EMSA: 20 mM HEPES pH 7.5, 150 mM NaCl, 1.5 mM MgCl2, 2 mM DTT, 2 mM ADPCP (so in the source), 10 min at room temperature, BisTris native gel
Conditions: protein: recombinant; tags: Flag; His

## GUUCCAGCGCAGCCCUUA (ssRNA) [IBR1-M3]
  binding result: no binding

B1: IBR1-M2 (ssRNA)
RNA: UGUAUUUUCUCCUUAUAAUCACUCCCUCCCGGGGCAUGUAAUUAAUUUCCUGAUGGAUUACUCACACGGUCUUGAAGAUGCAAUGUCAGCUAUUUAGGCUGUGCUAGGACUCAAUUACAACAACAUAUGCAUUAAGACAGGAACUGGCAAGCCGGGACUACAGCAACUACAGGGCUGGUGCUUCCCAACCGCUGGGCUAUAAUCUAUGAAACUGAGCCGGGAUCCAGCCAAUCAGUUAGCUAGCUCCUCAUAACAGGUCUAACUGGCUCUGGACAGCUAAGGGCUGCGCUGGAAC
  binding result: no binding

Source: article PMC11420289, “IBR1, a novel endogenous IFIH1‐binding dsRNA, governs IFIH1 activation and M1 macrophage polarisation in ARDS”
